According to IntAct's records for PubMed 21821029:

Molecular target: aurka_human AURKA (UniProt O14965)
Sequence (O14965 whole entry): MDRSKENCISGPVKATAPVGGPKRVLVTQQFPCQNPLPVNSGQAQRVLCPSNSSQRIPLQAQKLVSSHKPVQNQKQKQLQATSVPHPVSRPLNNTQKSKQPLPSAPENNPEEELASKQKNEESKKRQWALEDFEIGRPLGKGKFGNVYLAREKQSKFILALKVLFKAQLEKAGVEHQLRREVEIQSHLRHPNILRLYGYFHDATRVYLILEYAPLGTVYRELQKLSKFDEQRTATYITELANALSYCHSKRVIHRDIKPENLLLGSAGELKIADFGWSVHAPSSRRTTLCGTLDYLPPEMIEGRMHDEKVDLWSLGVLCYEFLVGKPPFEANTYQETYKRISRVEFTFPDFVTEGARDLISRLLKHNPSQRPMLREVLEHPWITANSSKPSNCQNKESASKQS

effect of a mutation on the interaction: disrupting interaction
Substance: Heterogeneous nuclear ribonucleoprotein K (Homo sapiens), P61978-2 S379A
